Laboratory results as given in US20250155441A1.
Residue numbers refer to the chain shown, from its start.

B1: mAb<AFP-L3>rRb-3C5-IgG (antibody, V domains shown)
VH: QSVEESGGRLVAPGTPLTLTCTVSGIDLSTYGMGWVRQAPGKGLEYIGIIDSGSTYYANWAKGRFTISKTSTTVDLKMTSLTTEDTATYFCARDRDPSSSGYYFKMWGPGTLVTVSL
VL: ALVMTQTPSSVSAAVGGTVTINCQASQSIGSYLAWYQQKPGQPPRLLIYGASNLESGVPSRFKGSGSGTEFTLTISDLECDDAATYYCQTAFYIFSSDNAFGGGTEVVVK
B2: mAb<AFP-L3>rRb-19B12-IgG (antibody, V domains shown)
VH: QSVEESGGRLVAPGTPLTLTCTVSGIDLSTYGMGWVRQAPGKGLEWIGIIGDNGSTYYANWAKGRFTISKTSTTVDLKMTSLTTEDTATYFCARDRDPSSSGYYFKMWGPGTLVTVSL
VL: B1 VL with G30S, R45K, Y49F

What was measured:
[1] = target: α-fetoprotein (AFP-L1), the non-fucosylated variant of AFP that should not react with Lens culinaris agglutinin A (human) (UniProt P02771); test: Elecsys ECL immunoassay, biotinylated protein 7 nM without pretreatment, antibody 1 µg/mL, ruthenylated anti-rabbit Fc, streptavidin beads (PBS blank 570)
Chain of α-fetoprotein (AFP-L1), the non-fucosylated variant of AFP that should not react with Lens culinaris agglutinin A (human) (P02771 19-609 limits assumed, change not shown): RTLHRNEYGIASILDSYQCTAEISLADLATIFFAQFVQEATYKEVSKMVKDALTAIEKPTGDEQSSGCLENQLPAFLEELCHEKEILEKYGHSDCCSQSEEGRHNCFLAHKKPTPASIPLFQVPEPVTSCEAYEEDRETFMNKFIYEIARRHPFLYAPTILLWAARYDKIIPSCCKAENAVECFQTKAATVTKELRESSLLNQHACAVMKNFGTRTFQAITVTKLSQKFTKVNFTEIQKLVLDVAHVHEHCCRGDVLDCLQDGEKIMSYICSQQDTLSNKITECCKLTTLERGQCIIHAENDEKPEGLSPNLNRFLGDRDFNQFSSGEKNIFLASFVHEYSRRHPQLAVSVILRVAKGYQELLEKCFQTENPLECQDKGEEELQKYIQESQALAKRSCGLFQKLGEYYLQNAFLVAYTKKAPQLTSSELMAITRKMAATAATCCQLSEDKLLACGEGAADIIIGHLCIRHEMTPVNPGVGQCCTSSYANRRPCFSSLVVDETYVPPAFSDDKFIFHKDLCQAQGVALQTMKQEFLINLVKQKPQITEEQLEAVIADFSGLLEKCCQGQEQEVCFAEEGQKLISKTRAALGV

[2] = target: α-fetoprotein (AFP-L1), the non-fucosylated variant of AFP that should not react with Lens culinaris agglutinin A (human) (UniProt P02771); test: Elecsys ECL immunoassay, biotinylated protein 7 nM without pretreatment, antibody 1 µg/mL, ruthenylated anti-rabbit Fc, streptavidin beads (PBS blank 580)

Counts [1] [counts]	Counts [2] [counts]	Binder
724		B1
	771	B2
